Holding throughout (assay): cells, lysate or membranes
For one data set, the system named is C[N+](C)(C)CCO. The note with it: other: SLC35E1, HEK293, net uptake over empty vector cells; pH 7.4.
In a further data set the test system is CC(N)Cc1ccccc1. Conditions: pH 7.4.
A further data set deals with CN1CCC[C@H]1c1cccnc1. The note with it: other: SLC38A10, HEK293, net uptake over empty vector cells; pH 7.4.
A further data set deals with Clc1cccc(Cl)c1N=C1NCCN1. The note with it: other: SLC38A10, HEK293, net uptake over empty vector cells; pH 7.4.

Take SLC35E1 (Homo sapiens): in the data set with C[N+](C)(C)CCO, the Km is on record as 91.6 (±39.8) μM; the Vmax (in general, the rate approached at saturating substrate) came out at 8.71e-05 µmol/min/mg; the Vmax/Km amounted to 0.95 µL/min/mg.
SLC38A10 (Homo sapiens): in the data set on CC(N)Cc1ccccc1, the Km is 120 (±44.9) μM. Also, the Km in the data set with CN1CCC[C@H]1c1cccnc1 is given as 62.0 (±35.6) μM. In the data set with Clc1cccc(Cl)c1N=C1NCCN1, the Km was 162 (±141) μM, the Vmax was 0.000427 µmol/min/mg and the Vmax/Km worked out at 2.64 µL/min/mg.

The values above are taken from publication PMC11406361, “Several orphan solute carriers functionally identified as organic cation transporters: Substrates specificity compared with known cation transporters” (The Journal of Biological Chemistry, 2024).
